Molecular target: T1, mCherry-TDP-43 (UniProt Q13148 1-414)
T1 construct: TDP-43, cloned from the plasmid TDP43 NOTAG1 (Addgene #28206); also called pmCherry TDP-43; source: HeLa, co-transfected, in lysate
Experiment: co-IP; RFP-Trap agarose beads on lysate of HeLa cells co-transfected with mCherry-TDP-43 and SIRT2-GFP variants; blot for TDP-43 and GFP
Conditions: partners not purified

T1 sequence (Q13148 whole entry): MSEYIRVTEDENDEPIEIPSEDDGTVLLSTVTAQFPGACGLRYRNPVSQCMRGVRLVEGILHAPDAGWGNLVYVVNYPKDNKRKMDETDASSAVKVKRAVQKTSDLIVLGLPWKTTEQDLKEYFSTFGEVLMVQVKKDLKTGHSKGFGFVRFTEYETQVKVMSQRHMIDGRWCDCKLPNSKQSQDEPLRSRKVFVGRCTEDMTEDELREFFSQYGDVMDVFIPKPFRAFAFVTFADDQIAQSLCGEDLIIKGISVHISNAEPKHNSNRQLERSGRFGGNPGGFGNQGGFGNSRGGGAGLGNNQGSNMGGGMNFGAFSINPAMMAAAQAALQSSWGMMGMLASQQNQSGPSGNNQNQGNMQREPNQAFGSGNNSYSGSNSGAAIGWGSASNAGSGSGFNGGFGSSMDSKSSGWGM

B1: dephosphomimetic S25A SIRT2-GFP (enzyme, UniProt Q8IXJ6 1-389, looked up)
chain: MAEPDPSHPLETQAGKVQEAQDSDADSEGGAAGGEADMDFLRNLFSQTLSLGSQKERLLDELTLEGVARYMQSERCRRVICLVGAGISTSAGIPDFRSPSTGLYDNLEKYHLPYPEAIFEISYFKKHPEPFFALAKELYPGQFKPTICHYFMRLLKDKGLLLRCYTQNIDTLERIAGLEQEDLVEAHGTFYTSHCVSASCRHEYPLSWMKEKIFSEVTPKCEDCQSLVKPDIVFFGESLPARFFSCMQSDFLKVDLLLVMGTSLQVQPFASLISKAPLSTPRLLINKEKAGQSDPFLGMIMGLGGGMDFDSKKAYRDVAWLGECDQGCLALAELLGWKKELEDLVRREHASIDAQSGAGVPNPSTSASPKKSPPPAKDEARTTEREKPQ
notes: Sirtuin 2 (SIRT2) with the dephosphomimetic change S25A; also called S25A dephosphomimetic; source: HeLa, co-transfected, in lysate
  fold increase in co-precipitation relative to the WT variant: ~2.5 fold

From PMC8722725, “Histone H3 deacetylation promotes host cell viability for efficient infection by Listeria monocytogenes” (PLoS Pathogens, 2021)
